Test results: US20240025996A1 (FRED HUTCHINSON CANCER CENTER, published 2024)

B1: Nb11 WT (VHH)
VHH: QVKLVQSGGGLVQAGGSLRLSCAASGSIFSSASMGWYRQAPGKPREQVASITRDGNTYYEDDVKGRFTISRDNARSTGYLQMNSLTPEDTGVYYCNVYQLGFYDKWGQGTQVIVSS
notes: also called free Nb11
B2: Nb14 WT (VHH)
VHH: QVKLVQSGGGLVQTGGSLRLSCAASEITFDMYSMGWYREAPGKARDAVASITNRGNTYYADSVKGRFTISRDNAKKTMYLQMNSLKPEDTAVYYCNVYRTGFSDYWGQGTQVTVSS
notes: also called free Nb14

Biological target: T1, soluble ROR1 ectodomain (UniProt Q01973 30-406)
T1 construct: extracellular domain; also called ROR1-A647
T1 sequence (Q01973 30-406 limits assumed): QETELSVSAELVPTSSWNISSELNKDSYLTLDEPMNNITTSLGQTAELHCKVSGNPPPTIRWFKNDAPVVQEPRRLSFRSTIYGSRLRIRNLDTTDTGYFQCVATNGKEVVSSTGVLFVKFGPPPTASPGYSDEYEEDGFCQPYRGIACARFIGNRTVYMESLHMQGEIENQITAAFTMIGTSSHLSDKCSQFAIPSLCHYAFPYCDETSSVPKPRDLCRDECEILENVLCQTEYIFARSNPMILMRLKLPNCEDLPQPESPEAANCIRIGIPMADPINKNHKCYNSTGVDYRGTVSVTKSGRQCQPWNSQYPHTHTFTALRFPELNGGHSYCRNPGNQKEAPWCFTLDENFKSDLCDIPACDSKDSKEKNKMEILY
Test: method not stated in the legend (FIGS. 1A-1C)

| Kd | Binder |
| --- | --- |
| 2 nM | B1 |
| 2 nM | B2 |
